Laboratory results taken from patent publication US20050048527, “Endonuclease-substrate complexes” (Third Wave Technologies, Inc., published 2005).

T1: Afu FEN1 (Archaeoglobus fulgidus, UniProt O29975 SEQ:1-336)
T1 sequence: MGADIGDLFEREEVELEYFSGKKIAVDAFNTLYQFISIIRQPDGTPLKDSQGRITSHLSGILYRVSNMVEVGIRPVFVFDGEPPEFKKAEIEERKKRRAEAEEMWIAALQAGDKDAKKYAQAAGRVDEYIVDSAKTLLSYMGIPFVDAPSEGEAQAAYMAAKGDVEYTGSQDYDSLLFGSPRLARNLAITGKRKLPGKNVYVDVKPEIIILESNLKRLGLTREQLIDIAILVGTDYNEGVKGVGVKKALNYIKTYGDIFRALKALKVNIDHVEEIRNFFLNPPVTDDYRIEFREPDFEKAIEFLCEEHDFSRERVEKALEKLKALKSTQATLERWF

T2: Pfu4M FEN1 (Pyrococcus furiosus, UniProt O93634 SEQ:1-340)
T2 chain: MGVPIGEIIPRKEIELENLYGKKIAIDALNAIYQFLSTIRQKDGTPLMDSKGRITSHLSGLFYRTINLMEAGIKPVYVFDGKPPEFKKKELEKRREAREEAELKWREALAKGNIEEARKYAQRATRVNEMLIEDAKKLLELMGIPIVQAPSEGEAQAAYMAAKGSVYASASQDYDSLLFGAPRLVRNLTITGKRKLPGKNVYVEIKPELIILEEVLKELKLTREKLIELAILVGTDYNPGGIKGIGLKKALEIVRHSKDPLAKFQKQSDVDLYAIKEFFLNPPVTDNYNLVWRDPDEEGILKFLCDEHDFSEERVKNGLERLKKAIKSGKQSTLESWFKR

T3: Pfu3M FEN1 (Pyrococcus furiosus, UniProt O93634 SEQ:1-340)
T3 chain: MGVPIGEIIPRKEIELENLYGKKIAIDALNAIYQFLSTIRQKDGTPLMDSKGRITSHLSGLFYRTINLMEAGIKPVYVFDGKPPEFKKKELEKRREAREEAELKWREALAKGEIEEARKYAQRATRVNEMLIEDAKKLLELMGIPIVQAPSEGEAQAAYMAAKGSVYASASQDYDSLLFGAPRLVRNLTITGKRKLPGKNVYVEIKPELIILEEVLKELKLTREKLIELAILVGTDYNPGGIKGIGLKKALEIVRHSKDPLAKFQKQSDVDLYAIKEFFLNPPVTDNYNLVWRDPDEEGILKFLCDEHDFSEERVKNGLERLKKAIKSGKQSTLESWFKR

T4: Pho3M FEN1 (Pyrococcus horikoshii, UniProt O50123 SEQ:1-343)
T4 chain: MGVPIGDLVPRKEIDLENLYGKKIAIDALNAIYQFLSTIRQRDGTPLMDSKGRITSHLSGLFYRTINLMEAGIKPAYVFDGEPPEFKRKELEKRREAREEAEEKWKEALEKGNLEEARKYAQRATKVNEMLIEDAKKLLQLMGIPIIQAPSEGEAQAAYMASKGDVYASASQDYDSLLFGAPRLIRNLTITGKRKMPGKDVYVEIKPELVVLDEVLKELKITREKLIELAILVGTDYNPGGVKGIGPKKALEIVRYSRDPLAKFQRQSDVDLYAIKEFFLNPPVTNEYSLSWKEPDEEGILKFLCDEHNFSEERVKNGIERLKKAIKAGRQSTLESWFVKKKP

T5: Pho2M FEN1 (Pyrococcus horikoshii, UniProt O50123 SEQ:1-343)
T5 chain: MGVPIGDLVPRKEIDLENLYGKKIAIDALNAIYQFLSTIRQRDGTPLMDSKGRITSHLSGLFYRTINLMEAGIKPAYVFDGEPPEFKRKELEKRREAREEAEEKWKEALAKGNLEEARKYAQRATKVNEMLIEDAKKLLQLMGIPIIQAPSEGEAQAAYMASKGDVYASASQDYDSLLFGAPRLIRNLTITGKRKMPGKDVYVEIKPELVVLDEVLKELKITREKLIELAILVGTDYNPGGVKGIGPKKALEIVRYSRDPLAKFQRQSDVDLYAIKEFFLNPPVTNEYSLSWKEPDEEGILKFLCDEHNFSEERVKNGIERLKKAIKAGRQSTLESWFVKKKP

T6: Pfu1M FEN1 (Pyrococcus furiosus, UniProt O93634 SEQ:1-340)
T6 chain: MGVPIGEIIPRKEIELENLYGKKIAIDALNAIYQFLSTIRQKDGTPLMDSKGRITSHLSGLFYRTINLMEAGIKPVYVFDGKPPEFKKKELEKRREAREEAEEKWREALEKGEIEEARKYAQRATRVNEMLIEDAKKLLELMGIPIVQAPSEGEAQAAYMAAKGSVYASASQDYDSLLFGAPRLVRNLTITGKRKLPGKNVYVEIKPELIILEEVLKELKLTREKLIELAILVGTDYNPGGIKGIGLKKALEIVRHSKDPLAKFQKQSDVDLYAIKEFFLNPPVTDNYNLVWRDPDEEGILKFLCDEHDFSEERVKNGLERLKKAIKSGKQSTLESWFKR


Key:
Assay in all cases: cleavage_in_vitro; rate vs Pfu FEN1
[1] = biological target: T1, Afu FEN1
Method: (§1) For the evaluation of chimeric enzymes, standard tests were performed to measure the performance and specificity of the enzymes. […] 10 μl reactions are run at 59 C for between 5 to 60 minutes depending on the enzyme. Reactions are stopped by the addition of 10 μl of 95% formamide, 0.02% methyl violet. 1 μl of the mixture is run on a denaturing 20% acrylamide gel and electrophoresed for 15 minutes or until good separation is achieved between cleaved and uncleaved probe. The gels are scanned using an FMBIO fluorescent gel scanner and the bands are quantified with FMBIOAnalysis software. Cleavage rates are determined from the percent probe cleaved. Cleavage rate for the INVADER substrate is defined as the number of probe molecules cleaved per target molecule per minute. In Table 5, below, the cleavage rates for the mutant enzymes are compared to the cleavage rates for unmodified Pfu FEN1 enzyme on the INVADER assay and X-structure substrates.
(§2) The X-structure substrate is used to determine the amount of background cleavage an enzyme will carry out in an INVADER reaction. It mimics the structure created by uncut primary probe and secondary FRET cassette in the INVADER squared reaction. […] 10 μl reactions are run at 59 C for between 3 to 30 minutes depending on the enzyme. Reactions are stopped by the addition of 10 μl of 95% formamide, 0.02% methyl violet. 1 μl of the mixture is run on a denaturing 20% acrylamide gel and electophoresed for 15 minutes or until good separation is achieved between cleaved and uncleaved probe. The gels are scanned using an FMBIO fluorescent gel scanner and the bands are quantified with FMBIOAnalysis software. Cleavage rates are determined from the percent probe cleaved.

[2] = biological target: T2, Pfu4M FEN1
Method: as §1, §2

[3] = biological target: T3, Pfu3M FEN1
Method: as §1, §2

[4] = biological target: T4, Pho3M FEN1
Method: as §1, §2

[5] = biological target: T5, Pho2M FEN1
Method: as §1, §2

[6] = biological target: T6, Pfu1M FEN1
Method: as §1, §2

[7] = label: 5'-biotin target, 5'-TET probe, hairpin target-INVADER with overlapping probe flap

Binder | cleavage rate [1, 7] | cleavage rate [2, 7] | cleavage rate [3, 7] | cleavage rate [4, 7] | cleavage rate [5, 7] | cleavage rate [6, 7] | cleavage rate ([1]; label: 5'-TET, X-structure) | cleavage rate ([2]; label: 5'-TET, X-structure) | cleavage rate ([3]; label: 5'-TET, X-structure) | cleavage rate ([4]; label: 5'-TET, X-structure) | cleavage rate ([5]; label: 5'-TET, X-structure) | cleavage rate ([6]; label: 5'-TET, X-structure)
INVADER substrate 594-12-1/203-91-1 (structured_DNA) DNA 1: TTTTTCACGGCAGTTGGTGCGCCTCGGAACGAGGCGCACA DNA 2: TTTTCAACTGCCGTGA | 0.52 | 2.2 | 1.8 | 0.95 | 1.6 | 0.83 | – | – | – | – | – | –
X-structure 203-81-2/203-91-2 (structured_DNA, 3'-NH2 on first strand) DNA 1: TTTTCAACTGCTTAGAGAATCTAAGCAGTTGGTGCGCCTCGTTAA DNA 2: AACGAGGCGCACATT | – | – | – | – | – | – | 0.5 | 62 | 4.9 | 6.6 | 31 | 0.85
